Laboratory results taken from patent US11707511B2, “Vaccine compositions and methods of using the same” (The Board of Supervisors of Louisiana State University and …, priority 2017, dated 2023).

B1: 1D4H5: IgG1 mAb of hybridoma 1D4H5, specific for GPV-M1; VH SEQ ID NO: 64, VL SEQ ID NO: 66 (antibody, V domains shown)
VH: MYLGLNCVFIVFLLKGVQSEVKLEESGGGLVQPGGSMKLSCVASGFTFSNYWMNWVRQSPEKGLEWVAEIRLKSNNYATHYAESVKGRFTISSDDSKSSVYLQMNNLRAEDTGIYYCSTGNYWGQGTTLTVSS
VL: MDFQMQIISLLLISVTVIVSNGEIVLTQSPTTMAASPGEKITITCSASSTISSNYLHWYQQKPGFSPKLLIYRTSNLASGVPARFSGSGSGTSYSLTIGTMEAEDVATYYCQQGSTISRTFGSGTKLEIK
B2: 10E7E2: IgG1 mAb of hybridoma 10E7E2, specific for GPV-P3; VH SEQ ID NO: 72, VL SEQ ID NO: 74 (antibody, V domains shown)
VH: QVQLKQSGPGLVQPSQSLSITCTVSGFSLTSYGVHWVRQSPGKGLEWLGVIWSGGTTDYNAAFISRLSISKDNSKSQVFFKMNSLQANDTAIYYCARGGHRGFAYWGQGTLVTVSA
VL: DIVMTQSHKFMSTSVGDRVSITCKASQDVGTAVAWYQQKPGQSPKLLIYWASTRHTGVPDRFTGSGSGTDFTLTISNVQSEDLADYFCQQYSSYPLTFGAGTKLELK

Legend:
[1] = tested on: C. glabrata ATCC 2001; assay: Passive transfer of mAbs, neutropenic mouse model of disseminated candidiasis by C. glabrata; format: in vivo; details: for Protection against C. glabrata / Protection against C. glabrata (grade word): Table 6, neutropenic BALB/c mice, mAb i.p. 4 h before 1×10^8 C. glabrata i.v.; for Protection against Candida spp in mouse model: Against C. glabrata / Protection against Candida spp in mouse model: Against C. glabrata (grade word): Table 9
Description: Induction of neutropenia. Although C. albicans remains the dominant disease-causing pathogen of this genus, rates of infections caused by non-albicans Candida (NAC) species are increasing. Among these Candida species, only C. albicans is pathogenic in the normal mouse model. To test vaccine and mAbs against non-albicans Candida spp, we have developed neutropenic murine models of disseminated infection by C. glabrata, C. tropicalis, and C. parapsilosis. Before challenge, BLAB/c mice were made neutropenic by intraperitoneal receipt of a 200 mg/kg dose of cyclophosphamide (CY; Sigma-Aldrich) at day −3. The i.p. injection (150 mg/kg) is repeated every 10 days after infection (i.e., at days 10, 20, 30, and 40 post-infection) in order to maintain low neutrophil counts for the entire experimental procedure. […] To evaluate leukocytopenia in these mice, blood samples were collected from tail veins 3 days after each CY or saline injection (n=10 in each group). Total leukocyte and differential cell counts were determined on a hemocytometer and by Wright-Giemsa staining. Body weights of the mice were also measured and compared for 14 days after the first CY or saline injection (n=10 in each group).
Fungal challenge dose and assessment ofprotection. Although C. albicans remains the dominant disease-causing pathogen of this genus, rates of infections caused by non-albicans Candida (NAC) species are increasing (18). Among these Candida species, only C. albicans is pathogenic in the normal mouse model (19,20). We have developed neutropenic murine models of disseminated infection by C. glabrata, C. tropicalis, and C. parapsilosis. […] In details, mice of different experimental groups (five mice per group) were intravenously infected with 5×10^6 viable C. parapsilosis ATCC MYA-4646 (A), 1×108 C. glabrata ATCC 2001 cells (B) and 1×107 C. tropicalis ATCC 28775 cells (C) in 0.1 ml DPBS. As controls, immunocompetent mice were challenged with the same dose of each Candida strain tested.
Passive transfer of MAbs by intraperitoneal (i.p.) route. The preventive effect of peptide-specific mAbs listed in Table 3 and Table 4 in naïve mice was examined by passive transfer experiments. Each mAb was appropriately diluted in DPBS to give a 40,000-100,000 ELISA titer against each corresponding specific peptide coated on the plate. For testing, mice received 0.5 ml of each mAb or 1 ml of two mAbs in combination (0.5 ml of each) intraperitoneally. Table 6 and Table 7 have listed all the peptide-specific mAb combinations that have been tested, as well as the protective efficacy of each mAb cocktail as compared to single mAb treatment. The negative control materials tested in mice were single mAb or DPBS. Control mice received 0.5 ml of the DPBS diluents or single mAb treatment. For each condition, 6- to 8-week-old female BALB/c mice (NCI) were given 0.5 ml of test mAb, or 1 ml two mAb cocktails or control materials intraperitoneally, followed 4 h later by 0.1 ml intravenously of defined lethal dose of yeast cells per milliliter of DPBS. Mice were divided into groups with five mice each and three independent experiments were carried out. In some experiments, mice were given the same dose of mAbs or control materials on every other day post-challenge for two weeks, as compared to the protective efficacy of mAb in combinations. All mice were sacrificed on day 50. For animal groups that were challenged non-albicans candida species, determined optimal challenge doses were applied for each candida strain.
The preventive effect of each universal peptide-specific mAb was examined by passive transfer experiments. Each mAb was appropriately diluted in DPBS (0.2 μg/μl) to give a 100,000 ELISA titer against each universal peptide coated on the plate. For testing, 5 mice of each tested group received 0.5 ml of each mAb intraperitoneally. The negative control materials tested in mice were mAbs absorbed with C. albicans yeast cells (3153A) and DPBS. […]

[2] = tested on: C. auris; assay: Passive transfer of mAbs in cyclophosphamide-immunosuppressed B6.129X1Elane mice, disseminated infection by C. auris; format: in vivo, Candida auris; details: 2×108 C. auris i.v.
Method: An immunocompromised murine model of disseminated infection by C. auris was developed. To induce immunosuppression, Jackson B6.129X1Elane mice received a 200 mg/kg dose of cyclophosphamide (CY) by i.p. on day −3. Prolonged immunosuppression was maintained for 30 days by giving each animal a 200 mg/kg dose of CY by i.p. every 10 days after infection. On day 0, mice of different experimental groups were intravenously infected with 2×10^8 viable C. auris yeast cells.
The preventive effect of peptide-specific mAbs, for example 7H6A2 and 1D4H5, and combinations thereof, for example 7H6A2+1D4H5, was examined by passive transfer experiments. Each mAb was appropriately diluted in DPBS to give a 40,000-100,000 ELISA titer against each corresponding specific peptide coated on the plate. For testing, mice received 0.5 ml of each mAb or 1 ml of two mAbs in combination (0.5 ml of each) intraperitoneally. Control mice received 0.5 ml of the DPBS diluents.
Protective mAbs protect immunocompromised mice against disseminated infection by Candida auris: The possibility of using passive mAb immunotherapy in immunocompromised mice against disseminated candidiasis by C. auris. The protective effect of mAb 7H6A2, 1D4H5 or these two mAbs in combination against the disease in immunocompromised mice was examined by passive transfer experiments (FIG. 14). Mice received either mAb 7H6A2 or 1D4H5 or the two mAbs in combination had reduced CFUs in kidneys (FIG. 14A) and in brains (FIG. 14B) as compared with control mice.

| Molecule | Protection against C. glabrata [1] | Protection against C. glabrata (grade word) [1] | Protection against Candida spp in mouse model: Against C. glabrata [1] | Protection against Candida spp in mouse model: Against C. glabrata (grade word) [1] | CFUs in kidneys as compared with control mice ([2]; FIG. 14A) | CFUs in brains as compared with control mice ([2]; FIG. 14B) |
| --- | --- | --- | --- | --- | --- | --- |
| B1 | (70-90%) | High | (70-90%) | High | reduced CFUs | reduced CFUs |
| B2 | (60-70%) | High | (60-70%) | High |  |  |
